{
  "source": "paper PMC9328677",
  "target": "T1, APLF acidic domain (APLFAD) WT (Homo sapiens, UniProt Q8IW19 450-511)",
  "T1 sequence": "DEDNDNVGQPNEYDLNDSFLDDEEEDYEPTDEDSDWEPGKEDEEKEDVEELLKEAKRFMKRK",
  "assay": "EMSA (native PAGE, cross-linked); APLFAD alone, no histones; Native PAGE EMSA with cross-linking; EMSA and NAQ buffer, salt and temperature not in material (general assay buffer 25 mM NaPi pH 7.0, 300 mM NaCl)",
  "settings": "protein: recombinant; tags: TAMRA-labelled; His-GST or His-SUMO fusion for expression (TEV cleaved; SUMO may be retained); chain copies: 2; blunt",
  "data": [
    {"binder": "49-bp DNA, centre of 601 (dsDNA) DNA 1: GCACCGCTTAAACGCACGTACGCGCTGTCCCCCGCGTTTTAACCGCCAA DNA 2: TTGGCGGTTAAAACGCGGGGGACAGCGCGTACGTGCGTTTAAGCGGTGC", "values": [
      {"measurement": "binding result", "result": "no binding"}
    ]}
  ]
}
